Molecular target: T1, GST-ERRα1 (Homo sapiens) (UniProt P11474)
T1 sequence: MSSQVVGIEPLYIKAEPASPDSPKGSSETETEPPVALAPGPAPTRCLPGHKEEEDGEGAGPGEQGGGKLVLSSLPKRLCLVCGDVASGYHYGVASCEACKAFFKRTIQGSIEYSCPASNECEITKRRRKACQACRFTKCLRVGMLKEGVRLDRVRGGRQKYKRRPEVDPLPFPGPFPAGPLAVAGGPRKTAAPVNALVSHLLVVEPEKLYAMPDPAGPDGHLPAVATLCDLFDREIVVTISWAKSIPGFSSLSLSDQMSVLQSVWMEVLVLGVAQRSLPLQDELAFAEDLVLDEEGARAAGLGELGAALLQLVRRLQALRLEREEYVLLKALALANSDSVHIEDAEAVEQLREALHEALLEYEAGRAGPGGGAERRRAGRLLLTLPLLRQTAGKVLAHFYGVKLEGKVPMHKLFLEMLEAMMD
Details: cell-free transcription, HeLa nuclear extract, approximate

**Q.** Which activity (fold repression) does the source give for SV40 genome / late promoter template here?
**A.** 3

— US20030152959
